The record followed here is patent US20170226155A1.

Where no end group is shown, it is not given here. [ ]: non-standard residue; d: D form. The star is where a group is joined. NMeF = CN[C@@H](Cc1ccccc1)C(=O)O; boroPro = OB(O)[C@@H]1CCCN1*

This assay addresses Dipeptidyl amino peptidase type IV (DPP IV). Kind of assay: cell-based or functional assay.
For PPP[boroPro] [ProProProboroPro], the IC50, pH 2 (Tetrapeptide Prodrugs) is 10 µM and the IC50 at ten minutes, pH 2 amounted to 10 µM.
As for APV[boroPro] [AlaProValboroPro], the IC50, pH 2 (Tetrapeptide Prodrugs) was 20 nM; the IC50, pH 8 (Tetrapeptide Prodrugs) amounted to 21 nM; the IC50 at ten minutes, pH 2 stood at 20 nM; the IC50 at ten minutes, pH 8 worked out at 21 nM.
Molecule YPA[boroPro] [Tyrosine-proline-alanine-proline boronic acid] returned an IC50 at ten minutes, pH 2 of 15 nM and an IC50 at ten minutes, pH 8 of 17 nM.
Turning to GPP[boroPro] [GlyProProboroPro], the IC50, pH 2 (Tetrapeptide Prodrugs) was 9 µM; the IC50 at ten minutes, pH 2 stood at 8.6 µM; the IC50 at ten minutes, pH 8 came out at 20 µM.
Consider FPA[boroPro] [Phenylalanine-proline-alanine-proline boronic acid], for which the IC50 at ten minutes, pH 2 amounted to 6 nM and the IC50 at ten minutes, pH 8 was found to be 8 nM.
For the molecule APP[boroPro] [AlaProProboroPro], the IC50, pH 2 (Tetrapeptide Prodrugs) was determined as 8 mM and the IC50 at ten minutes, pH 2 was determined as 8.3 µM.
Turning to GPV[boroPro] [GlyProValboroPro], the IC50, pH 2 (Tetrapeptide Prodrugs) was 17 nM; the IC50, pH 8 (Tetrapeptide Prodrugs) turned out to be 46 nM; the IC50 at ten minutes, pH 2 amounted to 17 nM; the half-inhibitory concentration (IC50) at ten minutes, pH 8 came to 46 nM.
[NMeF]PA[boroPro] [N-Me-Phe-PRO-ALA-PRO boronic acid] showed an IC50 at ten minutes, pH 2 of 2 µM and an IC50 at ten minutes, pH 8 of 2.7 µM.
Turning to AAV[boroPro] [AlaAlaValboroPro], the IC50 at ten minutes, pH 2 came to 2 µM and the IC50 at ten minutes, pH 8 worked out at 25 µM.
